{"source": "the nanobody polyreactivity screen of Harvey et al. (2022)", "data": [{"test": "yeast display, Sf9 membrane polyspecificity reagent, FACS + sequencing; frameworks hold sequencing errors", "procedure,_shortened": "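Using colony PCR, genes from sorted yeast display clones were amplified, then sequenced on MiSeq at 2 × 250 and filtered by CDR length. The clones had been stained with 10% biotinylated, detergent-solubilized Sf9 membrane reagent for 1 hour at 4 °C and sorted by FACS into low and high (top ~1%) gates on anti-HA and streptavidin fluorescence. Polyreactivity labels come from the gate of origin.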", "values": [{"sequence": "QVQLQESGGGLVLAGGSMRLSCAASGSISAHAYMGWERQAPGKEREHVAGINYGDNTNYADSVKGRFTISRDNEHRVSADEQPETGRYRGVLLRGFLELFYYYIYWGQGTQVTVSS", "polyreactivity (PSR sort gate)": "high polyreactivity"}, {"sequence": "QVQLQESGGGLVQACGSLRLSCAASGYIFSHQYMGWYRQAPGKERELVASISPGATTNYADCVKGRFTISRDNAKNTVYLQMNSLKPEDTAVYYYAVYQILDRRLSYWGQGTQVTVSC", "polyreactivity (PSR sort gate)": "high polyreactivity"}, {"sequence": "QVQLQESGGGLVQACGSLRLSCAASGYIFSHQYMGWYRQAPGKERELVASISPGATTNYADSVKGRFTISRDNAKNTVFLQMNSLKPEDTAVYYYAVYQMLDRRLSYWGQGTQVTVSC", "polyreactivity (PSR sort gate)": "high polyreactivity"}, {"sequence": "QVQLQESGGGLVQACGSQRLSCAASGSISEGQDMGWYRRAPGKESEFVAGIAPCATTYYADSVKGRFTISRDNAKNSVYLQMNSLKPEDTAVYYCAARSVTETDHDYWGQCTQVTVSS", "polyreactivity (PSR sort gate)": "low polyreactivity"}, {"sequence": "QVQLQESGGGLVQADGSLRLSCAASGSIFGYYYMGWYRQAPGKDRELVATINICGITNYADSVKGRFTISRDNAKNTVYLQMNSLKPDDTAVYYCAADEYAQRDLGYWGQGTQVTVSR", "polyreactivity (PSR sort gate)": "low polyreactivity"}, {"sequence": "QVQLQESGGGLVQAGDSQRLSCAASGNIFRFTDMGWYRQAPGKERELVAAINAGSTTYYADSVKGRFTISRDNAKNTVYLQMNSLKPEDTAVYYCAVYYLGSGTFGYWGQGAQVTVSS", "polyreactivity (PSR sort gate)": "high polyreactivity"}, {"sequence": "QVQLQESGGGLVQAGGCLRLSCAASGTIFDPDYMGWYHQAPGKERELVASISLGRITYYADSVKGRFTINRDNAKNTVYLQMNSLKPEDTAVYYCAVRVETIYYYSYWGQGTQVTVSS", "polyreactivity (PSR sort gate)": "high polyreactivity"}, {"sequence": "QVQLQESGGGLVQAGGDLRLSCAASGTIFRDYIMGWYRQAPGKEREFVAGIDRGANTNYADSVKGRFTISRDNAKNTVYLQMNSLKPEDTAVYYCAADWWRVDMDYWGQGTQVTVSS", "polyreactivity (PSR sort gate)": "low polyreactivity"}, {"sequence": "QVQLQESGGGLVQAGGGLRLSCAESGTISGPHVMRWYRQATGKEREFVAAINVGAYTYYADNVKGRFTISRDNEKNTVYLQMNSLKPEDTAFYYCAAFARYSRRYYYWGQGTQVTVSS", "polyreactivity (PSR sort gate)": "low polyreactivity"}, {"sequence": "QVQLQESGGGLVQAGGILRLSCAACGNIFPSAVMGWYRQALGKEREFVATINSGSNTYYADSVNGRFSISRDNAKHTVYLHRNSLKLQDTAVYYCAAYFKLPAWHTSWGQGTQVSVSS", "polyreactivity (PSR sort gate)": "low polyreactivity"}, {"sequence": "QVQLQESGGGLVQAGGSLCLSCAASGTIFFDGDMGWYRQAPGKEREFVAAINPGGSAYYADSVKGRLPLAAITHSVYLQMNSLKPEDTAVYYCAAKLFDVYGYYYWGQGTHVTVSS", "polyreactivity (PSR sort gate)": "low polyreactivity"}, {"sequence": "QVQLQESGGGLVQAGGSLCLSCAASGTNFFDGHMGWYRQAPGKEREFVAAINPGGSAYYADSLKGRLPLAAITHTVYLQMNSLKPEDTAVYYCAAILFDVYGYYYWGQGTHVTVSS", "polyreactivity (PSR sort gate)": "low polyreactivity"}, {"sequence": "QVQLQESGGGLVQAGGSLLSCAASGTISYYREMGSYRQAPGKERELVAGIGVGTITYYADSVKGRFTISRDNAKKTVFLQMNSLNPEDTAVYFCGDHIDGNDSHAYWGQGTQVTVSS", "polyreactivity (PSR sort gate)": "low polyreactivity"}, {"sequence": "QVQLQESGGGLVQAGGSLRLICAASCTISQEDWMGWYRQAPGKEREFVAAIGLGSNTNYADSLKGRFTISRDNAKITVYLQMNSLKPEDTAVYYCNNDSTNNPFQYDYWGQGTQVTVSS", "polyreactivity (PSR sort gate)": "low polyreactivity"}, {"sequence": "QVQLQESGGGLVQAGGSLRLRCAASRNISGSSDLGWYHQAPGKEREFVASMTSGGTTYYADSVKGRFTISRDNAKISEYLQMNSLKPEDTAVYYCAVGDPADAEFGYWGQGTQVTVRS", "polyreactivity (PSR sort gate)": "low polyreactivity"}, {"sequence": "QVQLQESGGGLVQAGGSLRLSCAAIGTIFASQHMGWYRQAPGKERELVASIAKGGNTYYADSVKGRFTISRGNAKNTEYLQMNSLKPEDTAVYYCAAEIDLPYYYGSADDDYWGQGTQVTVSS", "polyreactivity (PSR sort gate)": "high polyreactivity"}, {"sequence": "QVQLQESGGGLVQAGGSLRLSCAASCTISQEDWIGWYRQAPGKEREFVAAIGLGSNTNYADSLKGRFTISRDNAKNTVYLQMNSLKPEDTAVYYCAVSVWQYSDHVYRGQGTQVTVSS", "polyreactivity (PSR sort gate)": "low polyreactivity"}, {"sequence": "QVQLQESGGGLVQAGGSLRLSCAASGDILEADDMGWYRQAPGKERELVASITDGGSTNCADSMKGRSTICRDNAKITVYVQMNRLKLEDTAVYYCAGIAYPDVPTYFDYDSDYFYWGQGTLVTVSS", "polyreactivity (PSR sort gate)": "high polyreactivity"}, {"sequence": "QVQLQESGGGLVQAGGSLRLSCAASGIIFDNPNMGWYRQAPGKQRELVATINSGATTNYADSVKGRFTISRDNAKNTVYLLMNSLIPEDTAVYYCAVDLSPTYFYYWGQGTQVTVSS", "polyreactivity (PSR sort gate)": "high polyreactivity"}, {"sequence": "QVQLQESGGGLVQAGGSLRLSCAASGNIFEADIMGWYHQAHGKERELVASITDGGSTNYADSVKGRFNIKRDNAKNIVYLQMNSLKPEDTAVYYCAAIAYPDIATYFDYDSDYFYWGQGTQVTVSS", "polyreactivity (PSR sort gate)": "high polyreactivity"}, {"sequence": "QVQLQESGGGLVQAGGSLRLSCAASGNIFLGDTMGWYRQAPGKEREFVAGIARGGNPYYADSVKGRFTISRNNANNTVYLQKNSLKPEDTAVHYCAVQRSHASDYNYWGQGTQVTVSS", "polyreactivity (PSR sort gate)": "low polyreactivity"}, {"sequence": "QVQLQESGGGLVQAGGSLRLSCAASGNISVTGFMGWYRQAPGKERELVASIGIGATTYYADSVKGRFSISRDNAKNTVYLQMNSLKPEDTAVYYCAARYLYYAYSYWGQGTQVTVSS", "polyreactivity (PSR sort gate)": "low polyreactivity"}, {"sequence": "QVQLQESGGGLVQAGGSLRLSCAASGNISVTGFMGWYRQAPGKERELVASIGIGGTTYYADSVKGRFSISRDNAKNTVYLKMNSLKQEDTSVYYCAARYLYYAYSYWGQGTQVTVSS", "polyreactivity (PSR sort gate)": "low polyreactivity"}, {"sequence": "QVQLQESGGGLVQAGGSLRLSCAASGNISVTGFMGWYRQATGKERELVASIGIGGTTYYADSVKGRFSISRDNAKNTVYLQMNSLKPEDTAVYYCAARYLYYAYSYWGQGTQVTVSS", "polyreactivity (PSR sort gate)": "low polyreactivity"}, {"sequence": "QVQLQESGGGLVQAGGSLRLSCAASGNIVDADIMGWYRQEPGKERELVASITDGGSTNYADSVKGRFTISRDNAKNTVYLQMNSLKPEDTAVYYCAAIAYPDIPTYFDYDSEYFYWGQGTQVTVSS", "polyreactivity (PSR sort gate)": "low polyreactivity"}, {"sequence": "QVQLQESGGGLVQAGGSLRLSCAASGSIFADVQMGWYRQAPGKERELVASINFRGTTTYNADSVKGRITISRDNSKNTVYLQMSSLKPEDTAVYYCSVGRSEGGDYAYWGQGTHVTVSS", "polyreactivity (PSR sort gate)": "low polyreactivity"}, {"sequence": "QVQLQESGGGLVQAGGSLRLSCAASGSIFHLHIKCWYRQAPGKERESVAAISYGTSTYYADRVKGRFTICRDNAKNTVYLQMNSPKPDDTAVYYCAALFLVSKHHHYWGEGTQVTVSS", "polyreactivity (PSR sort gate)": "low polyreactivity"}, {"sequence": "QVQLQESGGGLVQAGGSLRLSCAASGSIFKVVDMGLYRQAPAKEREFVATIGEGGNTYYADSVKGRFTISRDNAKNTVYLQMNSLKTEDTAVYFYAVVLGTSYRYTYWGQGTKVTVSS", "polyreactivity (PSR sort gate)": "low polyreactivity"}, {"sequence": "QVQLQESGGGLVQAGGSLRLSCAASGSIFKVVDMGLYRQEPAKEREFVATIGEGGNTYYADSVKGRFTISRDNAKNTVFLQMNSLKPEDTAVYFYAVVLGTSYRYTYWGQGTQVTVSS", "polyreactivity (PSR sort gate)": "low polyreactivity"}, {"sequence": "QVQLQESGGGLVQAGGSLRLSCAASGSIFYEFYMGWYRQAPGKERELVAAIANGASTHYADSVKGRFTISRDNSNNTVYLQMSSLKQEDTAVYYCAVNTTSDIDYIYWGQGTQVNVSS", "polyreactivity (PSR sort gate)": "low polyreactivity"}, {"sequence": "QVQLQESGGGLVQAGGSLRLSCAASGSILFSTLMGWSRQAPGKERELVATITTGTFTNYAGSVKGRFTISRDNAENTVYLQMNSLRPEDTAVYYSADYANHKAGFYYWGQGTQVTVSS", "polyreactivity (PSR sort gate)": "high polyreactivity"}, {"sequence": "QVQLQESGGGLVQAGGSLRLSCAASGSISAVGAMGWYRQAPGKEREFAASVNWGTNTNYADSVKGRFTISRDNAKNTLYLQMNSLKPEDTAVYYCAVLPDWETRHEYWGHGTQVTVSS", "polyreactivity (PSR sort gate)": "low polyreactivity"}, {"sequence": "QVQLQESGGGLVQAGGSLRLSCAASGSISGPHVMGWYRQAPGKEREFVAAINVGANTYYADNVKGRFTISRDNANNTVYLQMNSLKPEDTAVYYCAAVYYGDIGHEYWGQGTQVTVSC", "polyreactivity (PSR sort gate)": "low polyreactivity"}, {"sequence": "QVQLQESGGGLVQAGGSLRLSCAASGSISRLDYMGWYRQASGKERELVAAIDNGRTTYYAESVKGRLTISRDNAKYTVYLQMNSLKPEDTAVYCCAAVRGRGGTHAYWGQGTQVTVSG", "polyreactivity (PSR sort gate)": "low polyreactivity"}, {"sequence": "QVQLQESGGGLVQAGGSLRLSCAASGSISYPRTMGWYSQAPGQEREFVAGIGVGGNTYYAESVKGRFTISSDNAKNTVYLQMNSQKPEDTAVYYCNAEWYYPYYYSRMDYWGLGTQVTVSS", "polyreactivity (PSR sort gate)": "low polyreactivity"}, {"sequence": "QVQLQESGGGLVQAGGSLRLSCAASGSIVVSVTMGWYRKAPGKESELVASIGRGSTTNHADSVKGRFTISRDNAKNIVDLLLNSLKPEDNAVYYCAALESYGKYHGYWGEGTQVTVSS", "polyreactivity (PSR sort gate)": "low polyreactivity"}, {"sequence": "QVQLQESGGGLVQAGGSLRLSCAASGTIFRFRYMGWHRQAPGKERELVAGINGGTTTYYADSVIGRFTISRVNAKNTVYLQMKSLKPDDTAVYNCAAGASRLTYYDYWGQGTQVTVSS", "polyreactivity (PSR sort gate)": "low polyreactivity"}, {"sequence": "QVQLQESGGGLVQAGGSLRLSCAASGTIFRISDMGSYRQAPGKEREFVAAITYGANTYYADSGKGRFTISRDNAKNTVSLQMNSLKPEDTAVYYCAVPPVKETILDYWGQGTQVTVSS", "polyreactivity (PSR sort gate)": "low polyreactivity"}, {"sequence": "QVQLQESGGGLVQAGGSLRLSCAASGTISDSGLMGWYRQAPGKERELVAGISSGGITNYADSVKGRFTISRDNAKNTVYLQMNSLKPDDTAVYWGQGTQVTVSS", "polyreactivity (PSR sort gate)": "low polyreactivity"}, {"sequence": "QVQLQESGGGLVQAGGSLRLSCAASGTISPLPAMGWYRQAPGKEREFVAGIDTGAITNYADSVKGRFTISRDNAKITVYLQMNSLKPEDTAVYYCAVFPAAYDYYERYYTYWGQGTQVTVSS", "polyreactivity (PSR sort gate)": "low polyreactivity"}, {"sequence": "QVQLQESGGGLVQAGGSLRLSCAASGTISPLPAMGWYRQAPGKEREFVAGIDTGAITNYADSVKGRFTISRDNAKNTVYLQMNSLKPEDTAVYYCAADLFLDGSSQYAPNWWPDGWNTYRLLGGYWGQGTQVTVSS", "polyreactivity (PSR sort gate)": "low polyreactivity"}, {"sequence": "QVQLQESGGGLVQAGGSLRLSCAASGTISPLPAMGWYRQAPGKEREFVAGIDTGAITNYADSVKGRFTISRDNAKNTVYLQMNSLKPEDTAVYYCAVFPAAYDYYERYYTYWGQGTQVTVSS", "polyreactivity (PSR sort gate)": "high polyreactivity"}, {"sequence": "QVQLQESGGGLVQAGGSLRLSCAASGTISPLPAMGWYRQAPGKEREFVAGIDTGAITNYADSVKGRFTISRDNAKNTVYLQMNSLKPVDTAVYYCAVFPAAYDYYERYYTYWGQGTQVTVSS", "polyreactivity (PSR sort gate)": "low polyreactivity"}]}]}
